Experimental data reported in patent publication EP4413995A1 (Université de Franche-Comté, dated 2024).

Legend:
[1] = biological target: T1, CD123 (recombinant, soluble, analyte of the Octet assay) (human, UniProt P26951 19-305); assay: BLI (Octet, ForteBio), antibody immobilized on streptavidin biosensors, CD123 in solution (row of 25 nM)
T1 chain: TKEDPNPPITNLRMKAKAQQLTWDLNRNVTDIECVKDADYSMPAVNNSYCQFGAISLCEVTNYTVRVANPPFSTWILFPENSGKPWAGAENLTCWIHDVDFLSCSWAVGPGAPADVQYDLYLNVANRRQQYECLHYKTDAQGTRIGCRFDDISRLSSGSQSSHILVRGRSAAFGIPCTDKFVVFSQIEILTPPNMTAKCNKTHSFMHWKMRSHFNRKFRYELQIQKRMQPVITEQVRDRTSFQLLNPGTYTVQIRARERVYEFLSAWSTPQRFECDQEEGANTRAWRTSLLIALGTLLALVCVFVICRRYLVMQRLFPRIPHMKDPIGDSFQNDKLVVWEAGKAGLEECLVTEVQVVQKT

[2] = biological target: T1, CD123 (recombinant, soluble, analyte of …); assay: BLI (Octet, ForteBio), antibody immobilized on streptavidin biosensors, CD123 in solution (row of 50 nM)
[3] = biological target: T1, CD123 (recombinant, soluble, analyte of …); assay: BLI (Octet, ForteBio), antibody immobilized on streptavidin biosensors, CD123 in solution (row of 12.5 nM)
[4] = biological target: T1, CD123 (recombinant, soluble, analyte of …); assay: BLI (Octet, ForteBio), antibody immobilized on streptavidin biosensors, CD123 in solution (row of 6.25 nM)

- Kd [1]: < 1 pM
- koff [1]: < 1e-07 s⁻¹
- kon [1]: 122000 M⁻¹ s⁻¹
- Kd [2]: < 1 pM
- koff [2]: < 1e-07 s⁻¹
- kon [2]: 122000 M⁻¹ s⁻¹
- Kd [3]: < 1 pM
- koff [3]: < 1e-07 s⁻¹
- kon [3]: 122000 M⁻¹ s⁻¹
- Kd [4]: < 1 pM
- koff [4]: < 1e-07 s⁻¹
- kon [4]: 122000 M⁻¹ s⁻¹
B1: 18B4D5 (antibody, V domains shown)
VH: EVKLQESGPGLVKPSQSLSLTCTVTGYSITSDYTWNWIRQFPGNKLEWMGYISFSGSTSYNPSLKSRLSITRDTSKNQFFLQLNSVTTEDTATYYCARGLDYWGQGTTLTVSS
VL: DIVMTQSPAIMSASLGERVTMTCTASSSISSSYLYWYQQKPGSSPKLWIYSTSNLASGVPARFSGSGSGTSYSLTISSMEAEDAATYYCHQLHRSPWTFGGGTKLEIKR
